Reference: publication PMC2246632

How the values were obtained:
[1] = molecular target: Cep3Δ (lacks zinc cluster) (Saccharomyces cerevisiae, UniProt P40969 48-608); test: EMSA
[2] = molecular target: T1, Cep3 (Cep3 1-608, full-length) (Saccharomyces cerevisiae, UniProt P40969 1-608); test: EMSA
[3] = molecular target: T1, Cep3 (Cep3 1-608, full-length); test: competition

T1 sequence (P40969 whole entry): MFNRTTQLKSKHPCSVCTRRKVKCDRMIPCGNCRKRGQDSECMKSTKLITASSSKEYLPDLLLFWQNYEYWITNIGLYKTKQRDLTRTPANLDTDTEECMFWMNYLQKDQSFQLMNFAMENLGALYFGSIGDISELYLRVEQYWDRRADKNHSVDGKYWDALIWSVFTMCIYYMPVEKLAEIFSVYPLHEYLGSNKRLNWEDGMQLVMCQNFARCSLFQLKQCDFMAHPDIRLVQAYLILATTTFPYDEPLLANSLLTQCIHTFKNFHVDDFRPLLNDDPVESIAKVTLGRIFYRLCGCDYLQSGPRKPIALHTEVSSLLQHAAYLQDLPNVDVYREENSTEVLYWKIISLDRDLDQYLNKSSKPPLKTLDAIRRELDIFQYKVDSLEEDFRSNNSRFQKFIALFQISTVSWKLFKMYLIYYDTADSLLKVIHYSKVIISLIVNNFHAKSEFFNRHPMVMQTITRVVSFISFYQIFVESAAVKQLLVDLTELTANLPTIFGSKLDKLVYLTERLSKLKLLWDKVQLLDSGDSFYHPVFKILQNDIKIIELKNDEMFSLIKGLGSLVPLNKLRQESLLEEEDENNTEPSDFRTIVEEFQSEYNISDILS
Cep3Δ (lacks zinc cluster), sequence (P40969 48-608, stated change not applied): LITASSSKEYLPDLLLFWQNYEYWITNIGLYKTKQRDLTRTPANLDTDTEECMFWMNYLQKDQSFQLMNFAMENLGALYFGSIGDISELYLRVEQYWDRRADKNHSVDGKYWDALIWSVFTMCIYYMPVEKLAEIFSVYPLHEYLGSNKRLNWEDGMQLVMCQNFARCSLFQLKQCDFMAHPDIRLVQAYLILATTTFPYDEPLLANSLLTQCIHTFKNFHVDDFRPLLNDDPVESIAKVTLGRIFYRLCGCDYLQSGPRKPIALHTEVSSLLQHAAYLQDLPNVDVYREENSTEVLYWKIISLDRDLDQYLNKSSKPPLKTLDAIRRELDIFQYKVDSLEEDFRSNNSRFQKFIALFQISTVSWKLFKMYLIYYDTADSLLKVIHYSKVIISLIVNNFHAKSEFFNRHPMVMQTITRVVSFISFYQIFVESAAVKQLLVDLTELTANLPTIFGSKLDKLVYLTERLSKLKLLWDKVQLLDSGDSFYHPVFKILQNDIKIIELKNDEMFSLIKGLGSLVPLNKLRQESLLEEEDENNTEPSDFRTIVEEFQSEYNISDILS

Binder | binding result [1] | binding result [2] | binding result [3]
native CDEIII probe (dsDNA) DNA 1: AAATATTAGTGTATTTGATTTCCGAAAGTTAAA DNA 2: TTTAACTTTCGGAAATCAAATACACTAATATTT | no binding | binds | –
native CDEIII competitor (dsDNA) DNA 1: AAATATTAGTGTATTTGATTTCCGAAAGTTAAA DNA 2: TTTAACTTTCGGAAATCAAATACACTAATATTT | – | – | binds
site 2 mutant (dsDNA) DNA 1: AAATATTAGAACTTTTGATTTCCGAAAGTTAAA DNA 2: TTTAACTTTCGGAAATCAAAAGTTCTAATATTT | – | – | binds
site 1 mutant (dsDNA) DNA 1: AAATATTAGTGTATTTGATTTGATAAAGTTAAA DNA 2: TTTAACTTTATCAAATCAAATACACTAATATTT | – | – | no binding
